Each block holds one binder with its values, some of them ahead of it. *1 amine or outer side, *2 acyl side, *3 side chain or, on linkers, in order; H or OH if unused. The star is where a group is joined. C20 diacid = O=C(O)CCCCCCCCCCCCCCCCCCC(=O)*; γGlu = O=C(O)[C@H](CCC(=O)[*:2])N[*:1]
Tests used:
[1] = molecular target: T1, human calcitonin receptor (a) (human, UniProt P30988 25-474); assay: cell-based or functional assay
T1 sequence (looked up): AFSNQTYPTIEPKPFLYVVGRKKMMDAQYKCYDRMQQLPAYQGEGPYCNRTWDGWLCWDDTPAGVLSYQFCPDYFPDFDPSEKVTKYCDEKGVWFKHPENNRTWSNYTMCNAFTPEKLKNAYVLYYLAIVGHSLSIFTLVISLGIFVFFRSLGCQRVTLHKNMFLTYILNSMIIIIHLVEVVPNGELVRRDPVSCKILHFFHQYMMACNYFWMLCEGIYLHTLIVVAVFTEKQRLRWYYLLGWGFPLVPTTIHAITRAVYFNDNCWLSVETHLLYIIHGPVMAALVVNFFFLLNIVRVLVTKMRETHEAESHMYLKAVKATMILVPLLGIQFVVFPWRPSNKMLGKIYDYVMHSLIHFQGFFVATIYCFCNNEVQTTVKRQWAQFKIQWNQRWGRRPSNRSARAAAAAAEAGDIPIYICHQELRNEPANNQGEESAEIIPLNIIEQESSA

[2] = molecular target: T2, human amylin-3(a) receptor (human, UniProt P30988 25-474; O60896 24-148); assay: cell-based or functional assay
T2 sequence (looked up) 1: T1 sequence (looked up)
T2 sequence (looked up) 2: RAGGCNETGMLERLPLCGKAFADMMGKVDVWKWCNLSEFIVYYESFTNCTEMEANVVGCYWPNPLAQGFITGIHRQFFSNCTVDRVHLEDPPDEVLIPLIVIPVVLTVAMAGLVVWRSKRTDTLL

hCalcR potency, EC50 (pM); CRE-luciferase reporter in BHK cells [1]: 1.25 pM
hAmyR3 potency, EC50 (pM); CRE-luciferase reporter in BHK cells [2]: 0.86 pM
B1: N^1-[(4S)-4-carboxy-4-(19-carboxynonadecanoylamino)butanoyl]-[Ala1,Ser2,His3,Leu4,Ser5,Ala7,Gln8,Glu14,His17,Asp21, Pro22,Pro27,Asp31, Pro34,Asp35, … (peptide)
peptide: {C20 diacid-γGlu}-ASHLSTAQTQRLAEFLHHSSDPFGAIPSSTDVGPDTP-NH2
SMILES: CC[C@H](C)[C@H](NC(=O)[C@H](C)NC(=O)CNC(=O)[C@H](Cc1ccccc1)NC(=O)[C@@H]1CCCN1C(=O)[C@H](CC(=O)O)NC(=O)[C@H](CO)NC(=O)[C@H](CO)NC(=O)[C@H](Cc1c[nH]cn1)NC(=O)[C@H](Cc1c[nH]cn1)NC(=O)[C@H](CC(C)C)NC(=O)[C@H](Cc1ccccc1)NC(=O)[C@H](CCC(=O)O)NC(=O)[C@H](C)NC(=O)[C@H](CC(C)C)NC(=O)[C@H](CCCNC(=N)N)NC(=O)[C@H](CCC(N)=O)NC(=O)[C@@H](NC(=O)[C@H](CCC(N)=O)NC(=O)[C@H](C)NC(=O)[C@@H](NC(=O)[C@H](CO)NC(=O)[C@H](CC(C)C)NC(=O)[C@H](Cc1c[nH]cn1)NC(=O)[C@H](CO)NC(=O)[C@H](C)NC(=O)CC[C@H](NC(=O)CCCCCCCCCCCCCCCCCCC(=O)O)C(=O)O)[C@@H](C)O)[C@@H](C)O)C(=O)N1CCC[C@H]1C(=O)N[C@@H](CO)C(=O)N[C@@H](CO)C(=O)N[C@H](C(=O)N[C@@H](CC(=O)O)C(=O)N[C@H](C(=O)NCC(=O)N1CCC[C@H]1C(=O)N[C@@H](CC(=O)O)C(=O)N[C@H](C(=O)N1CCC[C@H]1C(N)=O)[C@@H](C)O)C(C)C)[C@@H](C)O

hCalcR potency, EC50 (pM); CRE-luciferase reporter in BHK cells [1]: 1.31 pM
hAmyR3 potency, EC50 (pM); CRE-luciferase reporter in BHK cells [2]: 0.77 pM
B2: N^1-[(4S)-4-carboxy-4-(19-carboxynonadecanoylamino)butanoyl]-[Ala1,Ser2,His3,Leu4,Ser5,Ala7,Gln8,Ala10,Glu14,His17,Asp21,Pro25,Pro28,Pro29,Asp31,Pro37]-human … (peptide)
peptide: {C20 diacid-γGlu}-ASHLSTAQTARLAEFLHHSSDNFGPILPPTDVGSNTP-NH2
SMILES: CC[C@H](C)[C@H](NC(=O)[C@@H]1CCCN1C(=O)CNC(=O)[C@H](Cc1ccccc1)NC(=O)[C@H](CC(N)=O)NC(=O)[C@H](CC(=O)O)NC(=O)[C@H](CO)NC(=O)[C@H](CO)NC(=O)[C@H](Cc1c[nH]cn1)NC(=O)[C@H](Cc1c[nH]cn1)NC(=O)[C@H](CC(C)C)NC(=O)[C@H](Cc1ccccc1)NC(=O)[C@H](CCC(=O)O)NC(=O)[C@H](C)NC(=O)[C@H](CC(C)C)NC(=O)[C@H](CCCNC(=N)N)NC(=O)[C@H](C)NC(=O)[C@@H](NC(=O)[C@H](CCC(N)=O)NC(=O)[C@H](C)NC(=O)[C@@H](NC(=O)[C@H](CO)NC(=O)[C@H](CC(C)C)NC(=O)[C@H](Cc1c[nH]cn1)NC(=O)[C@H](CO)NC(=O)[C@H](C)NC(=O)CC[C@H](NC(=O)CCCCCCCCCCCCCCCCCCC(=O)O)C(=O)O)[C@@H](C)O)[C@@H](C)O)C(=O)N[C@@H](CC(C)C)C(=O)N1CCC[C@H]1C(=O)N1CCC[C@H]1C(=O)N[C@H](C(=O)N[C@@H](CC(=O)O)C(=O)N[C@H](C(=O)NCC(=O)N[C@@H](CO)C(=O)N[C@@H](CC(N)=O)C(=O)N[C@H](C(=O)N1CCC[C@H]1C(N)=O)[C@@H](C)O)C(C)C)[C@@H](C)O
